The values that follow come from the RNAGym collection of RNA variant scans (doi:10.1021/acssynbio.7b00057).

Sequences and labels used below:
B1: Pistol ribozyme (parent)
chain: GGGUCGUUGUUCCAUAAUCGCGUGGAUAUGGCACGCAAGUUUCUACCGGGCACCGUAAAUGUCCGACUGGAGCCGUUCGGGCGGCUAUAAACAGACCUCAGGCCCGAAGCGUGGCGGCACCUGCCGCCGGUGGUAAAAAAGAUCGGAAGAGCACACGUCU

This series covers variants of B1. Nature of the series: aptazyme ON/OFF ratio, guanine; higher = stronger switching; co-transcriptional cleavage with and without guanine.
As to GGGUCGGUACUUGAUAAUCGCGUGGAUAUGGCACGCAAGUUUCUACCGGGCACCGUAAAUGUCCGACUGGAGCCGUUCGGGCGGCUAUAAACAGACCUCAGGCCCGAAGCGUGGCGGCACCUGCCGCCGGUGGUAAAAAAGAUCGGAAGAGCACACGUCU [U7G G9A U10C C12U C13G], the “aptazyme ON/OFF ratio” value came to 1.15.

For the variant GGGUCGGUACAGGAUAAUCGCGUGGAUAUGGCACGCAAGUUUCUACCGGGCACCGUAAAUGUCCGACUGGAGCCGUUCGGGCGGCUAUAAACAGACCUCAGGCCCGAAGCGUGGCGGCACCUGCCGCCGGUGGUAAAAAAGAUCGGAAGAGCACACGUCU [U7G G9A U10C U11A C12G C13G], the “aptazyme ON/OFF ratio” value worked out at 1.07.

On to GGGUCGGUACAGAAUAAUCGCGUGGAUAUGGCACGCAAGUUUCUACCGGGCACCGUAAAUGUCCGACUGGAGCCGUUCGGGCGGCUAUAAACAGACCUCAGGCCCGAAGCGUGGCGGCACCUGCCGCCGGUGGUAAAAAAGAUCGGAAGAGCACACGUCU [U7G G9A U10C U11A C12G C13A], for which the “aptazyme ON/OFF ratio” value amounted to 1.11.

Regarding GGGUCGGUACAGUAUAAUCGCGUGGAUAUGGCACGCAAGUUUCUACCGGGCACCGUAAAUGUCCGACUGGAGCCGUUCGGGCGGCUAUAAACAGACCUCAGGCCCGAAGCGUGGCGGCACCUGCCGCCGGUGGUAAAAAAGAUCGGAAGAGCACACGUCU [U7G G9A U10C U11A C12G C13U], the “aptazyme ON/OFF ratio” value amounted to 1.12.

For the variant GGGUCGGUACAUCAUAAUCGCGUGGAUAUGGCACGCAAGUUUCUACCGGGCACCGUAAAUGUCCGACUGGAGCCGUUCGGGCGGCUAUAAACAGACCUCAGGCCCGAAGCGUGGCGGCACCUGCCGCCGGUGGUAAAAAAGAUCGGAAGAGCACACGUCU [U7G G9A U10C U11A C12U], the “aptazyme ON/OFF ratio” value amounted to 1.18.

Consider GGGUCGGUACAACAUAAUCGCGUGGAUAUGGCACGCAAGUUUCUACCGGGCACCGUAAAUGUCCGACUGGAGCCGUUCGGGCGGCUAUAAACAGACCUCAGGCCCGAAGCGUGGCGGCACCUGCCGCCGGUGGUAAAAAAGAUCGGAAGAGCACACGUCU [U7G G9A U10C U11A C12A], for which the “aptazyme ON/OFF ratio” value stood at 1.1.

GGGUCGGUACAGCAUAAUCGCGUGGAUAUGGCACGCAAGUUUCUACCGGGCACCGUAAAUGUCCGACUGGAGCCGUUCGGGCGGCUAUAAACAGACCUCAGGCCCGAAGCGUGGCGGCACCUGCCGCCGGUGGUAAAAAAGAUCGGAAGAGCACACGUCU [U7G G9A U10C U11A C12G]: the “aptazyme ON/OFF ratio” value is 1.15.

In the case of GGGUCGGUACACGAUAAUCGCGUGGAUAUGGCACGCAAGUUUCUACCGGGCACCGUAAAUGUCCGACUGGAGCCGUUCGGGCGGCUAUAAACAGACCUCAGGCCCGAAGCGUGGCGGCACCUGCCGCCGGUGGUAAAAAAGAUCGGAAGAGCACACGUCU [U7G G9A U10C U11A C13G], the “aptazyme ON/OFF ratio” value is 1.09.

Regarding GGGUCGGUACACAAUAAUCGCGUGGAUAUGGCACGCAAGUUUCUACCGGGCACCGUAAAUGUCCGACUGGAGCCGUUCGGGCGGCUAUAAACAGACCUCAGGCCCGAAGCGUGGCGGCACCUGCCGCCGGUGGUAAAAAAGAUCGGAAGAGCACACGUCU [U7G G9A U10C U11A C13A], the “aptazyme ON/OFF ratio” value was found to be 1.17.

For the variant GGGUCGGUACACUAUAAUCGCGUGGAUAUGGCACGCAAGUUUCUACCGGGCACCGUAAAUGUCCGACUGGAGCCGUUCGGGCGGCUAUAAACAGACCUCAGGCCCGAAGCGUGGCGGCACCUGCCGCCGGUGGUAAAAAAGAUCGGAAGAGCACACGUCU [U7G G9A U10C U11A C13U], the “aptazyme ON/OFF ratio” value worked out at 1.19.

Take GGGUCGGUACCAAAUAAUCGCGUGGAUAUGGCACGCAAGUUUCUACCGGGCACCGUAAAUGUCCGACUGGAGCCGUUCGGGCGGCUAUAAACAGACCUCAGGCCCGAAGCGUGGCGGCACCUGCCGCCGGUGGUAAAAAAGAUCGGAAGAGCACACGUCU [U7G G9A U10C U11C C12A C13A]: the “aptazyme ON/OFF ratio” value was found to be 1.11.

On to GGGUCGGUACCAGAUAAUCGCGUGGAUAUGGCACGCAAGUUUCUACCGGGCACCGUAAAUGUCCGACUGGAGCCGUUCGGGCGGCUAUAAACAGACCUCAGGCCCGAAGCGUGGCGGCACCUGCCGCCGGUGGUAAAAAAGAUCGGAAGAGCACACGUCU [U7G G9A U10C U11C C12A C13G], for which the “aptazyme ON/OFF ratio” value was found to be 1.19.

As to GGGUCGGUACCAUAUAAUCGCGUGGAUAUGGCACGCAAGUUUCUACCGGGCACCGUAAAUGUCCGACUGGAGCCGUUCGGGCGGCUAUAAACAGACCUCAGGCCCGAAGCGUGGCGGCACCUGCCGCCGGUGGUAAAAAAGAUCGGAAGAGCACACGUCU [U7G G9A U10C U11C C12A C13U], the “aptazyme ON/OFF ratio” value came to 1.12.

As to GGGUCGGUACAAUAUAAUCGCGUGGAUAUGGCACGCAAGUUUCUACCGGGCACCGUAAAUGUCCGACUGGAGCCGUUCGGGCGGCUAUAAACAGACCUCAGGCCCGAAGCGUGGCGGCACCUGCCGCCGGUGGUAAAAAAGAUCGGAAGAGCACACGUCU [U7G G9A U10C U11A C12A C13U], the “aptazyme ON/OFF ratio” value worked out at 1.09.

For the variant GGGUCGGUACAAAAUAAUCGCGUGGAUAUGGCACGCAAGUUUCUACCGGGCACCGUAAAUGUCCGACUGGAGCCGUUCGGGCGGCUAUAAACAGACCUCAGGCCCGAAGCGUGGCGGCACCUGCCGCCGGUGGUAAAAAAGAUCGGAAGAGCACACGUCU [U7G G9A U10C U11A C12A C13A], the “aptazyme ON/OFF ratio” value was determined as 1.11.

Take GGGUCGGUACAAGAUAAUCGCGUGGAUAUGGCACGCAAGUUUCUACCGGGCACCGUAAAUGUCCGACUGGAGCCGUUCGGGCGGCUAUAAACAGACCUCAGGCCCGAAGCGUGGCGGCACCUGCCGCCGGUGGUAAAAAAGAUCGGAAGAGCACACGUCU [U7G G9A U10C U11A C12A C13G]: the “aptazyme ON/OFF ratio” value is 1.09.

As to GGGUCGGUACACCAUAAUCGCGUGGAUAUGGCACGCAAGUUUCUACCGGGCACCGUAAAUGUCCGACUGGAGCCGUUCGGGCGGCUAUAAACAGACCUCAGGCCCGAAGCGUGGCGGCACCUGCCGCCGGUGGUAAAAAAGAUCGGAAGAGCACACGUCU [U7G G9A U10C U11A], the “aptazyme ON/OFF ratio” value was found to be 2.37.

As to GGGUCGGUACCCCAUAAUCGCGUGGAUAUGGCACGCAAGUUUCUACCGGGCACCGUAAAUGUCCGACUGGAGCCGUUCGGGCGGCUAUAAACAGACCUCAGGCCCGAAGCGUGGCGGCACCUGCCGCCGGUGGUAAAAAAGAUCGGAAGAGCACACGUCU [U7G G9A U10C U11C], the “aptazyme ON/OFF ratio” value was 1.04.
